The target in experiment [1] is Glycophorin A, native, on intact unmodified human erythrocytes (human (endogenous in erythrocytes)) (UniProt P02724). Kind of experiment: backscattering interferometry (BSI); free solution, label-free; intact erythrocytes at 0.1% haematocrit in 0.01% BSA-PBS, PfEBA175 dilution series up to 1 μM, 1 h at room temperature; reference: neuraminidase-treated erythrocytes, subtracted; square hyperbolic fit.

Experiment [2] concerns the target Basigin, native, on intact unmodified human erythrocytes (human (endogenous in erythrocytes)). As to the kind of experiment: backscattering interferometry (BSI); free solution, label-free; intact erythrocytes at 0.1% haematocrit in 0.01% BSA-PBS, PfRH5 dilution series up to 4.5 μM, 1 h at room temperature; reference: erythrocytes pre-incubated with 10 μg/mL anti-BSG antibody MEM-M6/6, subtracted; square hyperbolic fit.

Data on 2 substances can be found in article PMC4349660.

In general, Kd refers to the equilibrium constant for the complex coming apart. A higher Kd goes with lower affinity. In the case of “PfEBA175, entire ectodomain, monomeric Cd4-tagged recombinant protein (ligand)”, the Kd in experiment [1] was determined as 50 nM. “PfRH5, entire ectodomain, Cd4-tagged monomer (ligand)” had a Kd in experiment [2] of 1100 nM.
